Test results reported in publication PMC6995596, “The Plasma Factor XIII Heterotetrameric Complex Structure: Unexpected Unequal Pairing within a Symmetric Complex” (Biomolecules, 2019).

What was measured:
[1] = target: recombinant FXIII-A2 (coagulation factor XIII A subunit dimer) (UniProt P00488 2-732, zymogen dimer with activation peptide retained (paper residues 1-37 = entry 2-38; paper numbering = entry minus 1); initiator Met removed; limits follow the paper's domain boundaries (1-731) and PDB 1); test: ITC; 2.5 µM rFXIII-A2 in the cell, 25 µM rFXIII-B in the syringe; MicroCal200; one set of binding sites fitted in Origin, stepwise model FS ↔ MA + A1 ↔ MA2 fitted in Affinimeter; conditions: both partners purified
[2] = target: T1, recombinant FXIII-B (coagulation factor XIII B subunit) (human, UniProt P05160 21-661); test: ITC; event 2: M1A1 + A1 ↔ M1A2 (second site)
T1 chain: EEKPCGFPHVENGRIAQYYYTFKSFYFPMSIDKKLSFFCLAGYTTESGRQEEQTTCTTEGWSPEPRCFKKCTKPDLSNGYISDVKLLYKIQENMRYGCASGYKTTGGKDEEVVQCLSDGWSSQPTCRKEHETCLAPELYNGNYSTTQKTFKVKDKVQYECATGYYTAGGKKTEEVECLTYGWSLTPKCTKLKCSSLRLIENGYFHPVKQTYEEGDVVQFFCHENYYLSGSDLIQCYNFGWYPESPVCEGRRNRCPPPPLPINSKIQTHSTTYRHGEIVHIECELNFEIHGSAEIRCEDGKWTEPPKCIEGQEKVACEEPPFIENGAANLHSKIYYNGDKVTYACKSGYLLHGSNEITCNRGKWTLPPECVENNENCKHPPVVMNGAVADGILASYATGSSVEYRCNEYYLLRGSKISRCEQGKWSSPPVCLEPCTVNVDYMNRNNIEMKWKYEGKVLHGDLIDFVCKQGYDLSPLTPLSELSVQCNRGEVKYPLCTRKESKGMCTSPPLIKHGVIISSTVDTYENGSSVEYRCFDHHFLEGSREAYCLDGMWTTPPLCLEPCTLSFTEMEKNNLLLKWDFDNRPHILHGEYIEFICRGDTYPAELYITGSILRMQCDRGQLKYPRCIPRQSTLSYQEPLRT

B1: recombinant FXIII-B (coagulation factor XIII B subunit) (natural protein, human, UniProt P05160 21-661, looked up)
chain: T1 chain
notes: coagulation factor XIII B subunit, human cDNA in the pReciever-M01 mammalian expression vector; secreted protein; the stepwise ITC model treats the syringe species as single FXIII-B units; also called rFXIII-B; rFXIII-B2
B1 was tested, and the “KD of the first binding event (sequential two-step model)” value [1] was 0.0015 µM, the “KD of the second binding event (MA↔MA2)” value [1] was 4.3 µM and the “dH of the first binding event (sequential two-step model)” value [1] was -54.1 kcal/mol. For the same binder, the “dH of the second binding event (MA↔MA2)” value [1] was -86 kcal/mol.

B2: recombinant FXIII-A2 (coagulation factor XIII A subunit dimer) (natural protein)
chain: SETSRTAFGGRRAVPPNNSNAAEDDLPTVELQGVVPRGVNLQEFLNVTSVHLFKERWDTNKVDHHTDKYENNKLIVRRGQSFYVQIDFSRPYDPRRDLFRVEYVIGRYPQENKGTYIPVPIVSELQSGKWGAKIVMREDRSVRLSIQSSPKCIVGKFRMYVAVWTPYGVLRTSRNPETDTYILFNPWCEDDAVYLDNEKEREEYVLNDIGVIFYGEVNDIKTRSWSYGQFEDGILDTCLYVMDRAQMDLSGRGNPIKVSRVGSAMVNAKDDEGVLVGSWDNIYAYGVPPSAWTGSVDILLEYRSSENPVRYGQCWVFAGVFNTFLRCLGIPARIVTNYFSAHDNDANLQMDIFLEEDGNVNSKLTKDSVWNYHCWNEAWMTRPDLPVGFGGWQAVDSTPQENSDGMYRCGPASVQAIKHGHVCFQFDAPFVFAEVNSDLIYITAKKDGTHVVENVDATHIGKLIVTKQIGGDGMMDITDTYKFQEGQEEERLALETALMYGAKKPLNTEGVMKSRSNVDMDFEVENAVLGKDFKLSITFRNNSHNRYTITAYLSANITFYTGVPKAEFKKETFDVTLEPLSFKKEAVLIQAGEYMGQLLEQASLHFFVTARINETRDVLAKQKSTVLTIPEIIIKVRGTQVVGSDMTVTVEFTNPLKETLRNVWVHLDGPGVTRPMKKMFREIRPNSTVQWEEVCRPWVSGHRKLIASMSSDSLRHVYGELDVQIQRRPSM
modifications: zymogen dimer with activation peptide retained (paper residues 1-37 = entry 2-38; paper numbering = entry minus 1); initiator Met removed; limits follow the paper's domain boundaries (1-731) and PDB 1F13; any residual tag residues not stated
With B2 the Kd [2] was 4.36 µM.
